{
  "source": "the DeepSol protein solubility set",
  "data": [
    {"assay": "soluble on expression in E. coli; label from the status in PepcDB or PDB records", "values": [
      {"sequence": "ATEEEYQLFLEPYLQETRLGAYDFPLFSTIFKAFSKKGSFKSLIDPYCFGQALSNGRAITFVVTHDIPNNDVFLDLIMDEEDEWIAYAYILGRDGGVPLVYTDLDTSGIKNKNGKPRWKDAWNDPRMAKMIAFHNVTHGESMTVLEGNDDMLVLKRGEKGIVVLNKSTRAQSLSLKTECDWFDLMSDQSVKAGIELKVPAKSFMLLVQK", "soluble on expression in E. coli": "not soluble"},
      {"sequence": "MKTKYVVIIQCDMAKNRCSGMRCTNAFYEKTDAFENYAKDTKYISFTCGGCSGKVVSSKLANFSRWLKKYDCIKKDEVTIHLSSCMSTDNSHYDRCPNIDYIKQIINKKGYTNIVEGSIFSKKSEKLRDEGIYKKYQ", "soluble on expression in E. coli": "not soluble"},
      {"sequence": "MGSDKIHHHHHHMYKLVIIEDEHIIRKWLRYAIDYKALDILVIGEAKDGKEGAVLIKESQPDIVLTDINMPIMTAFDMFEVTKDQTYAKIILSGYADFPNARSAIHYGVLEFLTKPIEKAALWECLQTIIAKIEKQKGSNQKTDACVYIPLPQMTDQIPEVVKDILEWVHAHFQDKISTSRLAHDLGYSESYIYQNIKKHLQMPLSDYINQYRINQAIQLMQQEPDLMVYEIAQAVGIYDYRYFDRVFKKYLGQTVKAFKEEHFMKDTDRSKPC", "soluble on expression in E. coli": "not soluble"},
      {"sequence": "AVKRRPRFPVNSNSNGGNELCPKIRIGQDDLPGFDLISQFQVDKAASRRAIQRVVGSATLQVAYKLGNNVDFRIPTRNLYPSGLPEEYSFLTTFRMTGSTLKKNWNIWQIQDSSGKEQVGIKINGQTQSVVFSYKGLDGSLQTAAFSNLSSLFDSQWHKIMIGVERSSATLFVDCNRIESLPIKPRGPIDIDGFAVLGKLADNPQVSVPFELQWMLIHCDPLRPRRETCHELPARITPSQTTDER", "soluble on expression in E. coli": "soluble"},
      {"sequence": "MDSPRVERFRAQVTDTFVPNLTWAMAPVTATINLFQDFQSYQRLAQQNRELRSELRRMQAWKEAALQLEQENARLLDLNNVRLDPRLTYITGVVLADSGSPFRQSVLINVGSRDGLVDGWATMDGIGLVGRISGVADKTARVILLTDASSRIPAIIQPSGQRVIVSGDNSAAPFIDFLEDSDLVKPGHRVISSGDGGVFPAGLLIGQVAADPTGKLRVIMAADYQRLEFLRVLRHHGTTTVSDSAQIIGPQLPVAEATQLEHHHHHH", "soluble on expression in E. coli": "not soluble"},
      {"sequence": "SPMAVEEVIEMQGLSLDPTSHRVMAGEEPLEMGPTEFKLLHFFMTHPERVYSREQLLNHVWGTNVYVEDRTVDVHIRRLRKALEPGGHDRMVQTVRGTGYRFSTRF", "soluble on expression in E. coli": "soluble"},
      {"sequence": "SEGWAGRVRRHLAGDPARGPTMDVLAAELGVSVRTLRRRLADEGTDYETVVDEIREALAEALLATTTLTVAEVSERLGYSEPSAFARAFRRWKAMSPNEYRRSA", "soluble on expression in E. coli": "soluble"},
      {"sequence": "SLRYIRQLCCVSLLCLSGSAVAANVRLQVEGLSGQLEKNVRAQLSTIESDEVTPDRRFRARVDDAIREGLKALGYYQPTIEFDLRPPPKKGRQVLIAKVTPGVPVLIGGTDVVLRGGARTDKDYLKLLDTRPAIGTVLNQGDYENFKKSLTSIALRKGYFDSEFTKAQLGIALGLHKAFWDIDYNSGERYRFGHVTFEGSQIRDEYLQNLVPFKEGDEYESKDLAELNRRLSATGWFNSVVVAPQFDKARETKVLPLTGVVSPRTENTIETGVGYSTDVGPRVKATWKKPWMNSYGHSLTTSTSISAPEQTLDFSYKMPLLKNPLEQYYLVQGGFKRTDLNDTESDSTTLVASRYWDLSSGWQRAINLRWSLDHFTQGEITNTTMLFYPGVMISRTRSRGGLMPTWGDSQRYSIDYSNTAWGSDVDFSVFQAQNVWIRTLYDRHRFVTRGTLGWIETGDFDKVPPDLRFFAGGDRSIRGYKYKSIAPKYANGDLKGASKLITGSLEYQYNVTGKWWGAVFVDSGEAVSDIRRSDFKTGTGVGVRWESPVGPIKLDFAVPVADKDEHGLQFYIGLGPEL", "soluble on expression in E. coli": "soluble"},
      {"sequence": "MELLSIQNLTKVYKVPAGFLRKKNFFALKEVSLSIKQGDFLAIVGESGSGKSTLGKIILRLEKPTKGKVSFKGKDIFSMGKEYTRKVSAVFQDPRSSLNPRMKVEEILEEPLIVHRVKGRKERVLKVLQRVRLSEELLEKRPLQISGGQAQRVAIARALILEPELIVADEPTASLDVSVQEEILELFKELNSKGISFFFVTHDIRVVEKVANMVGVIYAGILMELGKKEEVLKNPLHPYTKFLLENVPVRHPKDRKPLKYLQEEEVSIPEEGCPFYPRCPEAMEECKKFIRRSEVNGRLLACNLY", "soluble on expression in E. coli": "soluble"},
      {"sequence": "MNKNKPFIVVIVGPTASGKTELSIELAKRINGEIISGDSMQVYKHMNIGTAKVTPEEMDGIPHHLIDILNPDDTFSAYEFKRLAEDLITDITNRGKVPIIAGGTGLYIQSLIYNYELEDETVTPAQLSIVKQKLSALEHLDNQQLHDYLAQFDAVSAENIHPNNRQRVLRAIEYYLKTKKLLSNRKKVQQFTENYDTLLLGIEMSRKTLYSRINKRVDIMLDHGLFREVQQLVEQGYESCQSMQAIGYKELIPVINGQMIYEDAVNDLKQHSRQYAKRQMTWFKNKMSVHWLDKENMSLQMMLDEITTQIKLEHHHHHH", "soluble on expression in E. coli": "soluble"},
      {"sequence": "MSLKARTKIEKQVAASNEKLTAISPKVMTWAVRKVAGHVCFRTSAHKCTCGECGRQFDYEGKGKSVCCPYCGTRLQIKDTLKRTIKEAYYFSSLEVIDHLQVQRVFRLETTFRKGLPMEVDYWEACRLWLNAEGKSAVTARARTLSYYVDCFDWASEITLKRPNEVHWLIADTYVYPHYRLLPELKRNGMKGKLPDCYPMKLMKAVLTDSRMETILKSKDLHAVSYFVNRPLELDRCWQSYKVATRHHYRPSDMGLWADTIRLLEQCGKDICSPRYICPQNLKAEHDYWMNRHNQMEQKRRSQEQIQRAKRKEAEFYKEKSRYFGITITDKDLVISVLDTLEAFQAEGNALHHCVFQCEYYAKADSLILSAHDKEGNRIETIEFSLTEGKVIQSRGLCNTNTPHHDRIVRLVNAHAHQILAAKQTAEGHHHHHH", "soluble on expression in E. coli": "not soluble"},
      {"sequence": "MSLASLCDLVGLPRSSFYRQSVFKVLEDQECETELRHQMQLICLEMPGYSYRRITAELHRRGWPVNHKRVLRLMRQDNLLCLRRKAFVRTTDSEHGFRVYPNLATNLMPSGLNQLWISDITYIRLQEEFVYLAIILDRYSRRVIGWSLSRHIDMELSLSALRMALSNREVLPGLIHHSDRGVQYASKAYIELLEEHKIAISMSRRGNPYDNAFAESFMKTLKYEEVLLNEYGDYREAQGNIARFIEEVYNRKRLHSSIGYLPPVEFEARVEHEISPASHPTEGHHHHHH", "soluble on expression in E. coli": "soluble"},
      {"sequence": "MGLHVPADQHDLDFTRLGPWFSVMVNGEGQRYKVSGQVTHVKPPQSVGFTWGWHDDDDRRGAESHVMFIVEPCAKGARLILDHRELGDDEMSLRHEEGWTSSLRKLAAELEHHHHHH", "soluble on expression in E. coli": "not soluble"},
      {"sequence": "MGHHHHHHSHMVITIYYDVKVRFIVRGCGQYISYRCQEKRNTYFAEYWYQAQCCQYDYCNSWSSPQLQSSLPEPHDRPLALPLSDSQIQWFYQALNLSLPLPNFHAGTEPDGLDPMVTLSLNLGLSFAELRRMYLFLNSSGLLVLPQAGLLTPHPS", "soluble on expression in E. coli": "not soluble"},
      {"sequence": "MLEAPLLSICIPAYNRPNWLQRGLESIAVGEGSDIEIVITDDSDTDQGQAIASEVLKNWSGSWCYEHHQQPLGMAQNWNRAIQWATGQYVMVLHDDDFFLPQGLGLLVNKLRQLGSSSPVLLFGVRVVDAQERVVKRQGFRQDKLLPPHDALIRLFSDSSFVRFPAMVIRRDLFTEVGYFNPDWREPCDLEMWMRLFARYGVYCCREATVAYRVHGQALTMGSFHGETVNILLRLFGELEKLNILTTRDIEFCKGLFFHQYILAGAWRQLRRRRWREFKQVMGLFDLPELKSLSCPVKWRFLRGLFSLTLEHHHHHH", "soluble on expression in E. coli": "not soluble"},
      {"sequence": "MNTVPFTSAPIEVTIGIDQYSFNVKENQPFHGIKDIPIGHVHVIHFQHADNSSMRYGYWFDCRMGNFYIQYDPKDGLYKMMEERDGAKFENIVHNFKERQMMVSYPKIDEDDTWYNLTEFVQMDKIRKIVRKDENQFSYVDSSMTTVQENELLKSSLQKAGSKMEAKNEDDPAHSLNYTVINFKSREAIRPGHEMEDFLDKSYYLNTVMLQGIFKNSSNYFGELQFAFLNAMFFGNYGSSLQWHAMIELICSSATVPKHMLDKLDEILYYQIKTLPEQYSDILLNERVWNICLYSSFQKNSLHNTEKIMENKYPELLGKDNEDDALIYGISDEERDDEDDEHNPTIVGGLYYQRP", "soluble on expression in E. coli": "soluble"},
      {"sequence": "MVLIDTEYVRAVVHNVGHRARCGVASKVRALKLAHSQARLRSYSQACERASYIDGRCEYYPSLDVASSSRNSEMLNSGFFDGYSWNTPNIQSQSSSDVTAKTELRRLMTETSEDPIHKEDSETLRRLIMWQEFRDAGVDVNTTQPGYGYGIEAKVEPFPQKLQNYESIHLETRRSSCPSFGTQLYNEPIYEGDEDPLGLGITPPVVTKTSGSLSNNGLDGINLNWKSIPAPVHQMQQHNANGDFVAAWPQNTIEKPTVGPLDKLQKQFEDIKLISISSGENTPTTRSKADEWLDDVLRVSMSMSPTSPSSDPPSTSSYSVLPKSGPPPAHAPPPLPVRQAVSNGSPSIYQQQLQQANSTRNSPAGINWNSSPNPMKISQPPAKPVDPFDVQWSRLAVNNTH", "soluble on expression in E. coli": "not soluble"},
      {"sequence": "VANITFSSPVMAKDVTVYAVAGDRGTILAVAKSHSIPIPFDCQDGECGSCLVQVEHFNPKAKAAVALTEKEKEVLRQLGKITKEEIVDAEVNDIPPRYRLACQCFVRNEDILVKFEGDKTKPQRLAVTPAAAHYKGGMEINTPQEFFSYAAKVEEDAALHYDSLAKAMADAGNAPVAKLFAQLAEFSRLHLAEVKSRAGSIDLSKSVPPDYAWPDHATPERAAVWASDTTLTRLGALKAALQGERRGYEFYRAVEATTKSSEVAAAAKEFVNEEAEHVRILEAWITQEEWSLKHAAKAAENA", "soluble on expression in E. coli": "not soluble"},
      {"sequence": "MNSNEDIHEERIEVPRTPHQTQPEKDSDRIALRDEISVPEGDEKAYSDEKVEMATTNASSNFGSNESAKDGESIGAFSNPHEALMQSKLREESQSKTILPSDDLSQQLETEESKVEEALKRITSPPLPPRADCIEESASALKSSLPPVLAGNKNDQAPLDRPQLPPRQVVNAETLHLKAPHGNATPSKSPTSAVGNSSSSTPPTLPPRRIEDPLDLAAQKHFLASTFKRNMLFYKSEDNSIKCDLDKNILNLKEDSKKINNNEIPEEVSSFWLKVIGDYQNILINDIETLHFQLSRGIPAAYRLVVWQLVSYAKSKSFDPIYETYLTEMAPFDVQEFENQLKMMDEVPSEYVKRISNVLKAYLLFDPECEFSTDIAYIINMILDVCEEEANAFGLLVRLMKVYGLRLLFLPSASEIDILCYKFDRLVEEFYPEIHNHMVEKGVRSSMFLPGFFTTLFQKKLPTEIQPRIGDMVFLEGIDSIMRILATLLSNSRDHLLKMGFDDMLELLKSGLLDAYIKQNDGTRGDTLLSNECMDKLLQDSMMKVAITPKTMKKYSSEYEEIHRLDNEKEVQYKSITEKNLHLQKHVRKLENDYTSLNREHVTIANELVKNRLNIESVLNENNGYKLQILDLKKKLDSEKKKQVLGVYVPNDLKKDLEETMKKNTQVMDENLKLQDRISELERLIEEIKTANKNGTLFEYSNSKNNPLGAGWSGFKKVFK", "soluble on expression in E. coli": "soluble"},
      {"sequence": "MGSDKIHHHHHHMKIHFVGIGGIGMSAVALHEFSNGNDVYGSNIEETERTAYLRKLGIPIFVPHSADNWYDPDLVIKTPAVRDDNPEIVRARMERVPIENRLHYFRDTLKREKKEEFAVTGTDGKTTTTAMVAHVLKHLRKSPTVFLGGIMDSLEHGNYEKGNGPVVYELDESEEFFSEFSPNYLIITNARGDHLENYGNSLTRYRSAFEKISRNTDLVVTFAEDELTSHLGDVTFGVKKGTYTLEMRSASRAEQKAMVEKNGKRYLELKLKVPGFHNVLNALAVIALFDSLGYDLAPVLEALEEFRGVHRRFSIAFHDPETNIYVIDDYAHTPDEIRNLLQTAKEVFENEKIVVIFQPHRYSRLEREDGNFAKALQLADEVVVTEVYDAFEEKKNGISGKMIWDSLKSLGKEAYFVEKLPELEKVISVSENTVFLFVGAGDIIYSSRRFVERYQSSKSSPSRVLGSNK", "soluble on expression in E. coli": "soluble"}
    ]}
  ]
}
